Measurements published in publication PMC12022973 (2025).
Positions of bridges follow the written chain, without caps; N, C: chain ends. Chains are numbered I, II in the order given. No end group written: not given here.

Target: preformed MYC/MAX heterodimer (human | , UniProt P61244 1-160)
Experiment: FP

Chain of preformed MYC/MAX heterodimer (chain, as listed by the source, chain 1 of 2): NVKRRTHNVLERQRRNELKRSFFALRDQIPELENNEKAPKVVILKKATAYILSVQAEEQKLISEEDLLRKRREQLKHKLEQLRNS
Chain of preformed MYC/MAX heterodimer (P61244 2-160, chain 2 of 2): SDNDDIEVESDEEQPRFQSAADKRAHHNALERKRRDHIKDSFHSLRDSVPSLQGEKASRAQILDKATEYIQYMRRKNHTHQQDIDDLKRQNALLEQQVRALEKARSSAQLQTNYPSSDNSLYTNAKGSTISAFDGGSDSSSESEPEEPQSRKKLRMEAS

Kd: 460 nM
B1: fluorescein-labeled CHD^Max-1 (cross-linked helix dimer derived from MAX) (designed binder)
chain 1: LREKIATLQWCIEELRK
chain 2: LRRKNETHQWEIEELC
modifications: bridge I:11-II:16; not fully specified (bridges); also: fluorescein label, chain and position not given here
